Substrate: O=C(Cc1ccccc1)Nc1ccc([N+](=O)[O-])c(C(=O)O)c1
Assay: purified protein
Format: biochemical, Escherichia coli
Conditions: pH 7.5, 25°C, 10 mM phosphate, 0.1 M KCl, hydrolysis

B1: penicillin acylase from Escherichia coli (EcPA) (Escherichia coli) (protein)
chain 1: EQSSSEIKIVRDEYGMPHIYANDTWHLFYGYGYVVAQDRLFQMEMARRSTQGTVAEVLGKDFVKFDKDIRRNYWPDAIRAQIAALSPEDMSILQGYADGMNAWIDKVNTNPETLLPKQFNTFGFTPKRWEPFDVAMIFVGTMANRFSDSTSEIDNLALLTALKDKYGVSQGMAVFNQLKWLVNPSAPTTIAVQESNYPLKFNQQNSQTA
chain 2: SNMWVIGKSKAQDAKAIMVNGPQFGWYAPAYTYGIGLHGAGYDVTGNTPFAYPGLVFGHNGVISWGSTAGFGDDVDIFAERLSAEKPGYYLHNGKWVKMLSREETITVKNGQAETFTVWRTVHGNILQTDQTTQTAYAKSRAWDGKEVASLLAWTHQMKAKNWQEWTQQAAKQALTINWYYADVNGNIGYVHTGAYPDRQSGHDPRLPVPGTGKWDWKGLLPFEMNPKVYNPQSGYIANWNNSPQKDYPASDLFAFLWGGADRVTEIDRLLEQKPRLTADQAWDVIRQTSRQDLNLRLFLPTLQAATSGLTQSDPRRQLVETLTRWDGINLLNDDGKTWQQPGSAILNVWLTSMLKRTVVAAVPMPFDKWYSASGYETTQDGPTGSLNISVGAKILYEAVQGDKSPIPQAVDLFAGKPQQEVVLAALEDTWETLSKRYGNNVSNWKTPAMALTFRANNFFGVPQAAAEETRHQAEYQNRGTENDMIVFSPTTSDRPVLAWDVVAPGQSGFIAPDGTVDKHYEDQLKMYENFGRKSLWLTKQDVEAHKESQEVLHVQR
notes: heterodimer of alpha (209 residues) and beta (557 residues) chains matured from one pac precursor; modified pBR322 vector with cat gene, expressed in E. coli TG-1, osmotic shock, hydrophobic chromatography; no tag mentioned
Km: 25.0 ± 0.8 µM
kcat: 25 ± 1.4 s⁻¹
kcat/Km: 1e+06 ± 90000 M⁻¹ s⁻¹
